Assay results published in the Human Domainome abundance scans (Beltran et al. 2025).
± gives the uncertainty stated by the source.

B1: 3'-5' exoribonuclease 1, residues 65 to 114; numbered along this chain, Q8IV48 (parent)
chain: VYKEIAITNGCINRMSKEELRAKLSEFKLETRGVKDVLKKRLKNYYKKQK

Variants of: B1
Test: abundance fitness (aPCA) (normalised: wild type 0, dead -1); higher = more abundant; growth selection in yeast, the domain comes from the species named
Settings: Homo sapiens

| Variant | abundance fitness |
| --- | --- |
| VYKEIAITNGCINRCSKEELRAKLSEFKLETRGVKDVLKKRLKNYYKKQK [M15C] | -0.826 ± 0.088 |
| VYKEIAITNGCINRPSKEELRAKLSEFKLETRGVKDVLKKRLKNYYKKQK [M15P] | -1 ± 0.092 |
| VYKEIAITNGCINRESKEELRAKLSEFKLETRGVKDVLKKRLKNYYKKQK [M15E] | -1.05 ± 0.18 |
| VYKEIAITNGCINRNSKEELRAKLSEFKLETRGVKDVLKKRLKNYYKKQK [M15N] | -0.789 ± 0.071 |
| VYKEIAITNGCINRTSKEELRAKLSEFKLETRGVKDVLKKRLKNYYKKQK [M15T] | -0.414 ± 0.057 |
| VYKEIAITNGCINRASKEELRAKLSEFKLETRGVKDVLKKRLKNYYKKQK [M15A] | -0.678 ± 0.071 |
| VYKEIAITNGCINRFSKEELRAKLSEFKLETRGVKDVLKKRLKNYYKKQK [M15F] | -0.544 ± 0.052 |
| VYKEIAITNGCINRKSKEELRAKLSEFKLETRGVKDVLKKRLKNYYKKQK [M15K] | -0.326 ± 0.082 |
| VYKEIAITNWCINRMSKEELRAKLSEFKLETRGVKDVLKKRLKNYYKKQK [G10W] | -0.401 ± 0.041 |
| VYKEIAITNTCINRMSKEELRAKLSEFKLETRGVKDVLKKRLKNYYKKQK [G10T] | -0.121 ± 0.043 |
| VYKEIAITNNCINRMSKEELRAKLSEFKLETRGVKDVLKKRLKNYYKKQK [G10N] | -0.147 ± 0.076 |
| VYKEIAITNLCINRMSKEELRAKLSEFKLETRGVKDVLKKRLKNYYKKQK [G10L] | -0.37 ± 0.034 |
| VYKEIAITNPCINRMSKEELRAKLSEFKLETRGVKDVLKKRLKNYYKKQK [G10P] | -0.248 ± 0.04 |
| VYKEIAITNRCINRMSKEELRAKLSEFKLETRGVKDVLKKRLKNYYKKQK [G10R] | -0.248 ± 0.035 |
| VYKEIAITNYCINRMSKEELRAKLSEFKLETRGVKDVLKKRLKNYYKKQK [G10Y] | -0.238 ± 0.048 |
| VYKEIAITNSCINRMSKEELRAKLSEFKLETRGVKDVLKKRLKNYYKKQK [G10S] | -0.146 ± 0.033 |
| VYKEIAITNQCINRMSKEELRAKLSEFKLETRGVKDVLKKRLKNYYKKQK [G10Q] | -0.125 ± 0.045 |
| VYKEIAITNGNINRMSKEELRAKLSEFKLETRGVKDVLKKRLKNYYKKQK [C11N] | -0.04 ± 0.05 |
| VYKEIAITNGYINRMSKEELRAKLSEFKLETRGVKDVLKKRLKNYYKKQK [C11Y] | -0.052 ± 0.037 |
| VYKEIAITNGTINRMSKEELRAKLSEFKLETRGVKDVLKKRLKNYYKKQK [C11T] | 0.005 ± 0.044 |
| VYKEIAITNGHINRMSKEELRAKLSEFKLETRGVKDVLKKRLKNYYKKQK [C11H] | -0.048 ± 0.053 |
| VYKEIAITNGVINRMSKEELRAKLSEFKLETRGVKDVLKKRLKNYYKKQK [C11V] | 0.01 ± 0.034 |
| VYKEIAITNGFINRMSKEELRAKLSEFKLETRGVKDVLKKRLKNYYKKQK [C11F] | -0.104 ± 0.044 |
| VYKEIAITNGSINRMSKEELRAKLSEFKLETRGVKDVLKKRLKNYYKKQK [C11S] | 0.012 ± 0.037 |
| VYKEIAITNGEINRMSKEELRAKLSEFKLETRGVKDVLKKRLKNYYKKQK [C11E] | 0.071 ± 0.046 |
| VYKEIAITNGWINRMSKEELRAKLSEFKLETRGVKDVLKKRLKNYYKKQK [C11W] | -0.147 ± 0.053 |

| Variant | abundance fitness |
| --- | --- |
| VYKEIAITNGPINRMSKEELRAKLSEFKLETRGVKDVLKKRLKNYYKKQK [C11P] | -0.278 ± 0.047 |
| VYKEIAITNGGINRMSKEELRAKLSEFKLETRGVKDVLKKRLKNYYKKQK [C11G] | -0.058 ± 0.035 |
| VYKEIAITNGRINRMSKEELRAKLSEFKLETRGVKDVLKKRLKNYYKKQK [C11R] | -0.074 ± 0.037 |
| VYKEIAITNGIINRMSKEELRAKLSEFKLETRGVKDVLKKRLKNYYKKQK [C11I] | 0.007 ± 0.05 |
| VYKEIAITNGKINRMSKEELRAKLSEFKLETRGVKDVLKKRLKNYYKKQK [C11K] | -0.039 ± 0.049 |
| VYKEIAITNGMINRMSKEELRAKLSEFKLETRGVKDVLKKRLKNYYKKQK [C11M] | 0.057 ± 0.046 |
| VYKEIAITNGLINRMSKEELRAKLSEFKLETRGVKDVLKKRLKNYYKKQK [C11L] | -0.053 ± 0.037 |
| VYKEIAITNGQINRMSKEELRAKLSEFKLETRGVKDVLKKRLKNYYKKQK [C11Q] | 0.046 ± 0.054 |
| VYKEIAITNGDINRMSKEELRAKLSEFKLETRGVKDVLKKRLKNYYKKQK [C11D] | 0.067 ± 0.048 |
| VYKEIAITNGAINRMSKEELRAKLSEFKLETRGVKDVLKKRLKNYYKKQK [C11A] | 0.046 ± 0.038 |
| VYKEIAITNGCPNRMSKEELRAKLSEFKLETRGVKDVLKKRLKNYYKKQK [I12P] | -0.716 ± 0.048 |
| VYKEIAITNGCYNRMSKEELRAKLSEFKLETRGVKDVLKKRLKNYYKKQK [I12Y] | -0.699 ± 0.06 |
| VYKEIAITNGCCNRMSKEELRAKLSEFKLETRGVKDVLKKRLKNYYKKQK [I12C] | -0.721 ± 0.056 |
| VYKEIAITNGCDNRMSKEELRAKLSEFKLETRGVKDVLKKRLKNYYKKQK [I12D] | -0.961 ± 0.088 |
| VYKEIAITNGCQNRMSKEELRAKLSEFKLETRGVKDVLKKRLKNYYKKQK [I12Q] | -0.899 ± 0.066 |
| VYKEIAITNGCWNRMSKEELRAKLSEFKLETRGVKDVLKKRLKNYYKKQK [I12W] | -0.435 ± 0.043 |
| VYKEIAITNGCVNRMSKEELRAKLSEFKLETRGVKDVLKKRLKNYYKKQK [I12V] | -0.152 ± 0.039 |
| VYKEIAITNGCSNRMSKEELRAKLSEFKLETRGVKDVLKKRLKNYYKKQK [I12S] | -0.769 ± 0.04 |
| VYKEIAITNGCTNRMSKEELRAKLSEFKLETRGVKDVLKKRLKNYYKKQK [I12T] | -0.457 ± 0.046 |
| VYKEIAITNGCENRMSKEELRAKLSEFKLETRGVKDVLKKRLKNYYKKQK [I12E] | -0.818 ± 0.073 |
| VYKEIAITNGCRNRMSKEELRAKLSEFKLETRGVKDVLKKRLKNYYKKQK [I12R] | -0.738 ± 0.042 |
| VYKEIAITNGCGNRMSKEELRAKLSEFKLETRGVKDVLKKRLKNYYKKQK [I12G] | -0.877 ± 0.047 |
| VYKEIAITNGCFNRMSKEELRAKLSEFKLETRGVKDVLKKRLKNYYKKQK [I12F] | -0.693 ± 0.048 |
| VYKEIAITNGCKNRMSKEELRAKLSEFKLETRGVKDVLKKRLKNYYKKQK [I12K] | -0.741 ± 0.068 |
| VYKEIAITNGCLNRMSKEELRAKLSEFKLETRGVKDVLKKRLKNYYKKQK [I12L] | -0.389 ± 0.034 |
| VYKEIAITNGCANRMSKEELRAKLSEFKLETRGVKDVLKKRLKNYYKKQK [I12A] | -0.873 ± 0.052 |
